Measured values: the supplement of paper PMC10567573
± gives the standard deviation.

Test: protein stability index of a GFP-peptide fusion (GPS, HEK-293T) (PSI 1-6); higher = more stable
Conditions: c terminus: a fixed tail appended
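Further: 24-mer peptide tiles fused after GFP, lentivirally expressed, FACS-sorted into six equal bins by GFP/DsRed ratio, decoded by Illumina sequencing, PSI is the read-weighted mean bin number.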

Sequence	protein stability index (treatment: DMSO)	protein stability index (treatment: MLN4924 1 uM, 8 h)
LEEALYEYQPLQIETYGPHVPELE [MNAT1]	3.25 ± 0.6	3.65 ± 0.47
LEENPYDLDAWSILIREAQNQPID [CSTF3]	3.74 ± 0.32	3.85 ± 0.31
LEEVERAILEMKWKVRAEKEACQR [ZBED2]	3.87 ± 0.18	3.76 ± 0.21
LEGEDAHLSSQQASGQSYSSREVF [KRT16]	5.04 ± 0.15	5.02 ± 0.1
LELDDNLDTERPVQKRARSGPQPR [TRIB3]	4.9 ± 0.38	5.11 ± 0.18
LELLGATYVDKKRDLLGALKHWRR [FEM1A]	2.48 ± 0.11	2.62 ± 0.3
LELSCDKFPPEEELQREWLGNREA [CPN1]	4.95 ± 0.25	5.11 ± 0.16
LERQLQAEFIESGQYRANEGTSSI [TAF7L]	4.7 ± 0.2	4.66 ± 0.12
LESPIDPQPLSFKEPPLLLGVLHP [APMAP]	3.43 ± 0.31	3.69 ± 0.24
LEVKIHDWYQKQTPTSPECDYSQY [KRT15]	2.81 ± 0.3	2.94 ± 0.25
LGDPPPLLTLPRPPLSGALASITE [HDAC6]	4.33 ± 0.38	4.41 ± 0.32
LGRMGKHEQALFIYVHILKDTRMA [VPS39]	2.89 ± 0.71	2.98 ± 0.78
LHAQLRDLTSSSSDELSWIIELLE [ELF3]	2.83 ± 0.22	2.99 ± 0.39
LHDRGAQVIHPQEFRRWRDTGVAF [DNAAF3]	2.83 ± 0.2	2.99 ± 0.38
LHRLFREKSLDQLKSISAEEILTL [PHTF1]	2.11 ± 0.45	2.25 ± 0.47
LIALLTWGYIRYSGQYRELGGAID [ATL3]	3.4 ± 0.13	3.52 ± 0.17
LIPVPMATQIQQLLQDKQFELALQ [VPS39]	2.31 ± 0.12	2.69 ± 0.29
LKEGVRLDRVRGGRQKYKRRPEVD [ESRRA]	4.19 ± 0.29	4.43 ± 0.19
LKKDKKKEEKEDEISLEDLIERER [ZC3H15]	5.47 ± 0.41	5.51 ± 0.13
LKLARKAYHDPMLKLSIMSEEELT [NET1]	3.06 ± 0.2	3.14 ± 0.21
LKLYEQWKNFDERKEMATILSKMP [CCNC]	2.61 ± 0.59	2.62 ± 0.41
LKPEKSYSFVLTNRGNSAGGLQHR [PTPRD]	3.08 ± 0.53	3.27 ± 0.23
LLEATGGAAGRSHHLDEDEERERI [KCTD10]	5.25 ± 0.25	5.41 ± 0.35

Sequence	protein stability index (treatment: DMSO)	protein stability index (treatment: MLN4924 1 uM, 8 h)
LLGFLRIRVRGQRASRLQAPVLVA [LPCAT4]	2.37 ± 0.52	2.12 ± 0.29
LLLILVSYVHILSAILQFPSTLGR [OR10K2]	2.98 ± 0.16	3.33 ± 0.35
LLLPGIYTVSATAPGYDPETVTVT [CPN1]	2.16 ± 0.22	2.17 ± 0.31
LPLPPPPPEPLSQVSMWDQRWQDH [APBB1IP]	3.19 ± 0.78	3.54 ± 0.57
LQDGNLRAPHKESTLPRSGSSGGQ [CHCHD6]	5.03 ± 0.12	4.95 ± 0.31
LQMEVCRLKKEEEDRIVTQNRVFA [CEP70]	3.98 ± 0.31	4.01 ± 0.055
LRLADEFGVAVVITNQVVAQVDGA [RAD51]	2.31 ± 0.52	2.1 ± 0.39
LRLSCMERKKVQIRSMDPSALASD [DCAF4]	2.99 ± 0.31	3.48 ± 0.3
LRPTLLLTSLHHFMHSRNLYILGN [PNLIPRP1]	3.08 ± 0.31	3.13 ± 0.81
LRQEMVNLRATDVRLMRQLLVINE [LURAP1L]	2.35 ± 0.081	2.48 ± 0.34
LRQLGCKDGKNWNSNQATDIMETS [SPOPL]	4.25 ± 0.24	4.28 ± 0.1
LRTSNGQPVKTAGEITQHNVTELL [DNAAF3]	4.14 ± 0.23	4.33 ± 0.17
LRVISDEGGWWKAISLSTGRESYI [SLA]		1.88 ± 0.22
LSAALASSQKQHSFTSSDKTIKSF [C8orf76]	3.77 ± 0.35	3.74 ± 0.2
LSAVPEEGDATRDPGPEPEEEPGV [PSD2]	5.77 ± 0.25	5.48 ± 0.49
LSEEERSEKAMLRSRIEEQSQLIC [CCDC89]	4.53 ± 0.3	4.62 ± 0.11
LSKSRTDYQPTQAGRLMRPSVKYL [RNF180]	3.19 ± 0.25	3.11 ± 0.49
LSLESEGAGEGAAASPELSALEEA [TPPP]	5.52 ± 0.17	5.58 ± 0.17
LSLTGVSLAGALGVKFVGLFIILQ [POMT2]	3.05 ± 1.1	2.39 ± 1.1
LSRDTVQESYENVDSLESHIPSQE [ZNF263]	5.26 ± 0.13	5.41 ± 0.13
LSRENIQSSLLETLYRNRSNLETI [PPEF2]	2.83 ± 0.39	2.64 ± 0.33
LSVEADINGLRRVLDELTLARADL [KRT17]	2.66 ± 0.26	3.04 ± 0.43
